US20030182691A1

Assays:
[1] = target: T1, papain (cysteine protease) (UniProt P00784); test: phage ELISA, papain coated in well, phage diluted 1 in 100, anti-M13/HRP detection
T1 sequence (looked up): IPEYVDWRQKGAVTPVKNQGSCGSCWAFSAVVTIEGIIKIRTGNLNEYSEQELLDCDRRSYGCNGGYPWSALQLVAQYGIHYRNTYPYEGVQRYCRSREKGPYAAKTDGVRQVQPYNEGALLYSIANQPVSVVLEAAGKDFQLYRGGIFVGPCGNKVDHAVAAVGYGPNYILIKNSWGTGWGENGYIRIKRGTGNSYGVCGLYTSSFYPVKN

[2] = target: trypsin (serine protease); test: phage ELISA, trypsin coated in well, phage diluted 1 in 100, anti-M13/HRP detection
[3] = target: POP-1 protein: Brassica napus Sta 44G(2) / Sitophilus zeamais SCPc1 protease translational fusion (Brassica napus; Sitophilus zeamais); test: cell-based or functional assay
[4] = target: T2, POV-1 protein: Brassica napus Sta 44G(2) / Onchocerca volvulus OV7 protease inhibitor translational fusion, P22085
T2 chain: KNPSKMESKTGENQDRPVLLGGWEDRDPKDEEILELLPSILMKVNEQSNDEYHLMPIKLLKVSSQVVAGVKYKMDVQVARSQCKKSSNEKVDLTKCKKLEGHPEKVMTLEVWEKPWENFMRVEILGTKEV

[5] = target: T3, OV7/GST (cysteine protease inhibitor OV7 conjugated to GST), P22085
T3 chain: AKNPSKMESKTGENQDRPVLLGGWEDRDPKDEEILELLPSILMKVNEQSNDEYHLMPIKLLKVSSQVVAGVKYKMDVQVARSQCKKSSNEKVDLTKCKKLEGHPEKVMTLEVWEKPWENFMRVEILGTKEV

[6] = target: T1, papain (cysteine protease); test: cell-based or functional assay

Molecule “M13 wild type or control phage not displaying any foreign protein” has an O.D.410 (O.D. at 410 nm) [1] of 0.043 and an O.D.410 (O.D. at 410 nm) [2] of 0.026.

B1: POV-1 protein: Brassica napus Sta 44G(2) / Onchocerca volvulus OV7 protease inhibitor translational fusion (protein)
chain: T2 chain
Work on B1 yielded a Percent Loss of Viability (Alexander staining of pollen, F1 plant POP 2 X POV 20 No. 2) [3] of 19%, a Percent Loss of Viability (Alexander staining of pollen, F1 plant POP 2 X POV 20 No. 3) [3] of 21% and a Percent Loss of Viability (Alexander staining of pollen, F1 plant POP 12 X POV 20 No. 1) [3] of 66%. For the same molecule, the Percent Loss of Viability (Alexander staining of pollen, F1 plant POP 12 X POV 20 No. 4) [3] was 58%, the Percent Loss of Viability (Alexander staining of pollen, F1 plant POP 12 X POV 25 No. 1) [3] was 26% and the Percent Loss of Viability (Alexander staining of pollen, F1 plant POP 12 X POV 25 No. 2) [3] was 19%.

B2: papain (cysteine protease) (protein)
chain: T1 sequence (looked up)
B2 was tested, and the “percentage of papain protease activity (substrate Pyr-Phe-Leu-pNA, 410 nm) relative to the non-transformed control plant extract” value [4] was 53% to 61% and the “percentage of papain protease activity (substrate Pyr-Phe-Leu-pNA, 410 nm) relative to the non-transformed control plant extract” value [5] was 2%.

B3: recombinant onchocystatin (OV7), cysteine protease inhibitor (protein)
chain: T3 chain
Work on B3 yielded an Average Pollen Tube Length (tobacco pollen in vitro, 42 µM papain + 30 µM onchocystatin) [6] of 80 µm and a Pollen Germination (tobacco pollen in vitro, 42 µM papain + 30 µM onchocystatin) [6] of 69%.
